{
  "source": "the DeepSol protein solubility set",
  "data": [
    {"assay": "soluble on expression in E. coli; label from the status in PepcDB or PDB records", "values": [
      {"sequence": "MDLFKRKVKEWVYSLSTDDHYAEYNPDETPTFNMGKRLNSNNGQVNPSQMHLNSVDEEMSMGFQNGVPSNEDINIDEFTSTESNDGVSETLLAWRHIDFWTSEHNPDLNATLSDPCTQNDITHAEEDLEVSFPNPVKASFKIHDGQEDLESMTGTSGLFYGFQLMTLDQVVAMTQAWRNVAKNLNKRSQQGLSHVTSTGSSSSMERLNGNKFKLPNIPDQKSIPPNAVQPVYAHPAWIPLITDNAGNHIGVDLAPGPNGKYAQIITFGRDFDTKFVIAENWGEFLLSFANDLEAGNWYLVDDNDDYFSGDGELVFRDKKSNGPIQDYFEVLKRRTWIKYQENLRSQQQKSQPDTSLQEQKYVPASQKKVAAEQPSTLNAESIKGEDSGSADVQSVQDHESVKIVKTEPSEAETTTVNTESLGQAEHEIKADNVDIKQESERKEDEKQPKVEEKEHVENEHVTESAKKDDDVNKQTEEMNKKEENEIRSDDAKVEEAREEFENIAL", "soluble on expression in E. coli": "soluble"},
      {"sequence": "MDLIGLRIRNIRKIKQLTLKEAAKGIISVPYLANIENGVKVASFETLMHIAKRLEIPEEALLIGNEDLNKELLQELKQIFDLLVFSNTKEAGDRLDQIAANVDLLCESPVIELSFYWLQAGFYYKTWEFSKAREIERKYLNSNEKRVVESFPPDLLSYYYYGQAVKHSHATCDYQLAVEYWEKSIDLTDKAAFQVVFQVGLCINYICLNNYEPALKHIECAWNLIKRFPSKDQERITAILYLYGYINFQIGFMTEAKRKFEEVLVFFNMYPEAKTMYSFLVRFKLAEIERVEGNHELFDEKIVCLYEELMAHEASEIGFNNNDYLVITELMVIFAEQGSVLEASNLLAIINKVTEQVMEINFFVTYTETLLLYHQNKQSSYEKKMLDLLKKIDESNDPALIERVKKHASKHFADSTKYKMAYNILA", "soluble on expression in E. coli": "not soluble"},
      {"sequence": "MDLPYYHGCLTKRECEALLLKGGVDGNFLIRDSESVPGALCLCVSFKKLVYSYRIFREKHGYYRIETDAHTPRTIFPNLQELVSKYGKPGQGLVVHLSNPIMR", "soluble on expression in E. coli": "soluble"},
      {"sequence": "MDLTLIIDNYDSFVYNIAQIVGELGSYPIVIRNDEISIKGIERIDPDRLIISPGPGTPEKREDIGVSLDVIKYLGKRTPILGVCLGHQAIGYAFGAKIRRARKVFHGKISNIILVNNSPLSLYYGIAKEFKATRYHSLVVDEVHRPLIVDAISAEDNEIMAIHHEEYPIYGVQFHPESVGTSLGYKILYNFLNRV", "soluble on expression in E. coli": "soluble"},
      {"sequence": "MDMISAFDIFKIGIGPSSSHTVGPMNAGKSFIDRLESSGLLTATSHIVVDLYGSLSLTGKGHATDVAIIMGLAGNSPQDVVIDEIPAFIELVTRSGRLPVTSGAHIVDFPVAKNIIFHPEMLPRHENGMRITAWKGQEELLSKTYYSVGGGFIVEEEHFGLSYDVETPVPYDFHSAGELLKMCDYNGLSISGLMMHNELALRSKAEIDAGFARIWQVMHDGIERGMNTEGVLPGPLNVPRRAVALRRQLVSSDNISNDPMNVIDWINMYALAVSEENAAGGRVVTAPTNGACGIIPAVLAYYDKFRRPVNERSIARYFLAAGAIGALYKMNASISGAEVGCQGEIGVACSMAAAGLTELLGGSPAQVCNAAEIAMEHNLGLTCDPVAGQVQIPCIERNAINAVKAVNAARMAMRRTSAPRVSLDKVIETMYETGKDMNDKYRETSRGGLAIKVVCG", "soluble on expression in E. coli": "soluble"},
      {"sequence": "MDMVAQALELSRKPHVVIATPGRLADHLRSSNTFSIKKIRFLVMDEADRLLEQGCTDFTVDLEAILAAVPARRQTLLFSATLTDTLRELQGLATNQPFFWEAQAPVSTVEQLDQRYLLVPEKVKDAYLVHLIQRFQDEHEDWSIIIFTNTCKTCQILCMMLRKFSFPTVALHSMMKQKERFAALAKFKSSIYRILIATDVASRGADQPPLPPGAWTSLRYRWSSTTTPPGSPRSTSTESAGRPVQGGRVRPSRW", "soluble on expression in E. coli": "soluble"},
      {"sequence": "MDNDKKDKIILSGELTNHRFNFTKDGENGYSAYEVDRFLDQLVHTLTHYEAQRNREEEMKTAYEKLFQDRDEILKRCSKLEAELNNFYENGYSNRVLISRVQALENKIESLPSGQNDRLERIEKLLKRVIKHWTDGEDLSYGDFDDDFF", "soluble on expression in E. coli": "soluble"},
      {"sequence": "MDNFSLLTTPWLPVRFKDGSTGKLAPVDLADENVVDIAATRADLQGAAWQFLLGLLQCSIAPKRYKNWEDIWFDGLHADVLHKALAPLEHAFQFGAETPSFMQDFEPLSGEKVSIASLLPEIPGAQTTKFNKDHFVKRGVTERFCPHCAALALFSLQLNAPAGGKGYRTGLRGGGPLTTLVELQEYQGERQTPLWRKLWLNVMPQDTADLPLPDQCDATVFPWLAATRTSEQANAVTTPEQVNKLQAYWGMPRRIRLDFATLQSGCCDICGAESDELLGFMTVKNYGVNYDGWRHPLTPYRAPVKDQNAFFSVKPQPGGLIWRDWLGLSQNNQTEANYESPAQVVKVFNARSLTDVKAGIWGFGADFDNMKIRCWYEHHFPLLMTEGLIPDLRKAVQTAARLLSLLRSALKEAWFADAKGARGDFSFIDIDFWNLTQGRFLNLIHDLENGHKPDERLNKWQRELWLFTRHYFDDHVFTNPYESSDLERIMTARKKYFTTSAEKQSAKAAKAKKQEAAE", "soluble on expression in E. coli": "not soluble"},
      {"sequence": "MDNIVTESIKFESEPNYLQRGYHLFDISFLNGLTCVITNKIETDEIHLKIKLDWDERDIEKITGFIQLSYDGHQLKPIDSNFDKRGGICTIIVPKFLYEYRWSFSFNLKLHRDPAKPPQISNDLKSQVSYDTMFEPSRKHDAVLLIGEKKLHVNKAFLSYHSDYFSDLFAEKVDEKNGIPIENVTYENFGLLMSVIYPEAVFSNHQNAEVLLELGNRFKIPAVMRHVENQIVGDTTKFPNKRLISLAEKYGLQKLLAMEIQKMKSFDQAKKFKGSDDYLQLSDATKAKIFDRLIELS", "soluble on expression in E. coli": "not soluble"},
      {"sequence": "MDNKALLTHVDINNVVCAMPLPYTRLYEGLASGLKAQFDGIPFYYAHMRGADIRVECLLNGVYDMAVVSRLAAESYLTQKGLCLALELGPHTYVGEHQLICRKGESANVKRVGLDNRSADQKIMTDVFFGGSDVERVDLSYHESLQRIVKGDVDAVIWNVVAENELTMLGLEATPLTDDPRFLQATEAVVLTRVDDYPMQQLLRAVVDKHALLAHQQRVVSGEQEPSY", "soluble on expression in E. coli": "soluble"},
      {"sequence": "MDNKIVYVVSDSVGETADLVVRAAMGQFPFAPDIRRVPYVEDTGTLKEVISIAKSNQALICFTLVKPDMRQYLVTEAAKEGVEAYDIIGPLIDQIEEITGQVPRYEPGVVRRLDEEYFKKIEAIEFAVKYDDGRDARGILKADIVLIGISRTSKTPLSQYLAHNKRLKVANVPLVPEVDPPEELYQVAKEKCFGLKITPEKLNHIRKERLKSLGLSDGATYANINRIKEEIDHFENVVSKINCQVIDVSNKAIEETANIIVNAVQNQKMFMAGDPLEHHHHHH", "soluble on expression in E. coli": "soluble"},
      {"sequence": "MDNLKDFKNEALVVTNASDGNTPHIVQGIEPDGSLRTKPLAQAKPSETFLHIDRNKSVIGTFFSNMNRQYDRPSDFRFYHLPVEMLSAAKDLVEIFKFPEENGQLLSNYAIDIRQPAQEQSITGDTPQQTTRWGVDEVDWQQLARMGVTPESLGETGMQRLLNGHESAVLDIRISFEGIDFETPACIRLVESAGGKPVLNVECCKRYPELDRPYMGTELSPEVKENLSRSNNAGCVVELELAGGVREPCLLSLNPKTNRLHHVPVSEITIPQEVNRVRLSDDQTTRLARGESVLVENMWSEKKQGYYDARLQYNVCKGGFTYDFRGLNRKQAQSETQMRSRELVIPQVLKGVGLTPEVREKLAAGKTVHIKDMTDNEGNLFSAFVRVNHERAKFDFFKWNPDKSKKQGQSQQAAVRQEGTKPENTVSRNRPVQKTDKKGVSI", "soluble on expression in E. coli": "not soluble"},
      {"sequence": "MDNQISVPPALTGNYAFFFDLDGTLADIQPHPDQVVIPDSTLQALNALAQQQGGAVALISGRSMAELDALTHPWRLPLAGVHGAERRDINGKTYIVSLPTALRDEIAAELTSALEALPGCELESKEMAFALHYRQAPQQQSAVLELAQRIVQRYPLLALQLGKCVVEIKPRGVNKGEAITAFMQEAPFAGREPVFVGDDLTDEAGFSVVNQLQGMSVKVGAGETQAHWRLADAAAVRTWLQHLAYDAQTERRDDHESFSRSL", "soluble on expression in E. coli": "not soluble"},
      {"sequence": "MDNRVREACQYISDHLADSNFDIASVAQHVCLSPSRLSHLFRQQLGISVLSWREDQRISQAKLLLSTTRMPIATVGRNVGFDDQLYFSRVFKKCTGASPSEFRAGCE", "soluble on expression in E. coli": "soluble"},
      {"sequence": "MDPKFQRVALSDGHFIPVLGFGTYAPEEVPKSKAMEATKIAIDAGFRHIDSAYFYKNEKEVGLAIRSKIADGTVKREDIFYTSKLWCTFHRPELVRPSLEDSLKNLQLDYVDLYIIHFPTALKPGVEIIPTDEHGKAIFDTVDICATWEAMEKCKDAGLAKSIGVSNFNRRQLEMILNKPGLKYKPVCNQVECHPYLNQGKLLEFCKSKGIVLVAYSALGSHREPEWVDQSAPVLLEDPLIGALAKKHQQTPALIALRYQLQRGIVVLAKSFTEKRIKENIQVFEFQLPSEDMKVIDSLNRNFRYVTADFAIGHPNYPFSDEY", "soluble on expression in E. coli": "soluble"},
      {"sequence": "MDPLSAASKIAGSGLEVQSTRLRIVSENIANARSTGDTPGADPYRRKTVTFGSELDHVSGVERVKVKKLGVDRGDFVHEYDPGNPAADTNGMVKMPNVNVLIEMADMREANRSYDANLQVIRQTRDLVASTIDLLKASQ", "soluble on expression in E. coli": "not soluble"},
      {"sequence": "MDPLSWLYARQGRFAPGLERIRAFLARLGHPEEAYPVALVGGTNGKGTTARALAAILEEAGFRVGLYTSPHLVDFRERIQVQGRPIPEEKLLALLAELRPHAERLEASFFEVATALALLHFAREGVEFAVLEVGLGGRLDATNATEPVLSVVTNVGHDHLEVLGPTLKDVAREKAGIFRGGVPALTAARGEGLGVLRAEALGRKNPPWVLGEDFHAEGVEALPQGLAFTLRLERTGEALRLTARLLGPHQAENLALAALSGRLLGAGWEAVKRGVARAENPGRLQRLLWRGRELLLDGAHNPEGALALREALRFHGLLPAAFVLGFSRDKDHAAMAEALRGLGPVVLTRYASPRSEDPRALLPLFPGAKVVEDPLEALEEAFSREGRVVVAGSLYLVGEVLRRLEGLPAEERWQ", "soluble on expression in E. coli": "soluble"},
      {"sequence": "MDPNQPVKFTEFMPDSGGIRTKFIVKGSNFGEDKSQVKVYFKDEVGNEREALVLGVKPDVIYAQVPKQAGGESHVRVEIAGKEAELSNAEKTFKYIVTSSVSTVVGKAKEGGNKDGTLGETTFNTPRYVAVDNDDNVFIFDSDGRTRLSSIEQNKTITLLDGMVIDQPLFIDKEKKQLFGPCDNANFGCFLFDANVSWVADKMGQLLANGGWMHSVVLDPVDSTFVIYRQNTGQLWTQPFDKNRRTLNPNKAKRIGTLYNTGSNGLCAYNPVDKYVYCVLHSKSAVYRFKLTRDADGWPALDGDIDEYIPGAGAGFRDGDVQEAQFKEPRGIAIDKEGNLYIADVGNNRIRKVDTKLNVVTTIAGSGAAGYKDGDPLEAQFNQPWGVYLDKNEFLYIADQNNHCIRKLAIELEHHHHHH", "soluble on expression in E. coli": "not soluble"},
      {"sequence": "MDPRQFEHTVVADNDIHSIVMSYLLHNCFNETADSLASSTGVKQPAIDRDNMERRKQIIHFILERKALKAFELTEQLAQDLLEKNKDLQFDLLCLHFVELICAGNCTEALKFGKTRLAPFGKVKKYVEKLEDVMALLAYEDPEKSPMFHLLSSEYRQQVADNLNRTILEHTNHPSYTPMERIIQQVTVVRQYLTEENGKDAFPPFSLKDSLKG", "soluble on expression in E. coli": "soluble"},
      {"sequence": "MDQIFNKVGSYWLGQKANKQFDSVGNDLNSVSTSIEGGTKWLVNKIKGKMQKPLPELLKEYDLPIGIFPGDATNYEFDEETKKLTVLIPSICEVGYKDSSVLKFTTTVTGHLEKGKLTDVEGIKTKVMIWVKVTSISTDASKVYFTAGMKKSRSRDAYEVQRNGLRVDKF", "soluble on expression in E. coli": "soluble"},
      {"sequence": "MDREAFVQTLTACRLCPRLVAWREEVVGRKRAFRGEPYWARPVPGFGDPEARILLFGLAPGAHGSNRTGRPFTGDASGAFLYPLLHEAGLSSKPESLPGDDLRLYGVYLTAAVRCAPPKNKPTPEELRACARWTEVELGLLPEVRVYVALGRIALEALLAHFGLRKSAHPFRHGAHYPLPGGRHLLASYHVSRQNTQTGRLTREMFLEVLMEAKRLAGL", "soluble on expression in E. coli": "soluble"}
    ]}
  ]
}
